Legend:
[1] = HEK 293 co-expression, Western blot of conditioned medium; conditions: glycan lost; control: wild type
[2] = HEK 293, Western blot densitometry, pro-BNP to BNP conversion; conditions: glycan lost; control: wild type

pro-BNP (pro-B-type natriuretic peptide): T71A
other: proteolytic processing [1]: increases | other: proteolytic processing [2]: increases

Source: paper PMC3152652
